What was measured:
Format in all cases: functional, cell-based
[1] = substrate: Nc1nc(O)c2ncn(COC(CO)CO)c2n1; assay: (§1) TP_TRANSPORTER: uptake in OAT1-expressing S2 cells
[2] = substrate: Nc1nc2c(ncn2COCCO)c(=O)[nH]1; assay: as §1
[3] = substrate: CC(C)[C@H](N)C(=O)OCCOCn1cnc2c(=O)[nH]c(N)nc21; assay: TP_TRANSPORTER: uptake in OAT3-expressing S2 cells
[4] = substrate: Nc1nc(O)c2ncn(COC(CO)CO)c2n1; assay: (§2) TP_TRANSPORTER: uptake in OCT1-expressing S2 cells
[5] = substrate: Nc1nc2c(ncn2COCCO)c(=O)[nH]1; assay: as §2

B1: Solute carrier family 22 member 6 (Homo sapiens) (protein)
chain: MAFNDLLQQVGGVGRFQQIQVTLVVLPLLLMASHNTLQNFTAAIPTHHCRPPADANLSKNGGLEVWLPRDRQGQPESCLRFTSPQWGLPFLNGTEANGTGATEPCTDGWIYDNSTFPSTIVTEWDLVCSHRALRQLAQSLYMVGVLLGAMVFGYLADRLGRRKVLILNYLQTAVSGTCAAFAPNFPIYCAFRLLSGMALAGISLNCMTLNVEWMPIHTRACVGTLIGYVYSLGQFLLAGVAYAVPHWRHLQLLVSAPFFAFFIYSWFFIESARWHSSSGRLDLTLRALQRVARINGKREEGAKLSMEVLRASLQKELTMGKGQASAMELLRCPTLRHLFLCLSMLWFATSFAYYGLVMDLQGFGVSIYLIQVIFGAVDLPAKLVGFLVINSLGRRPAQMAALLLAGICILLNGVIPQDQSIVRTSLAVLGKGCLAASFNCIFLYTGELYPTMIRQTGMGMGSTMARVGSIVSPLVSMTAELYPSMPLFIYGAVPVAASAVTVLLPETLGQPLPDTVQDLESRWAPTQKEAGIYPRKGKQTRQQQEHQKYMVPLQASAQEKNGL
[1]
  Km: 896 µM
[2]
  Km: 342 µM

B2: Organic anion transporter 3 (Homo sapiens) (protein)
chain: MTFSEILDRVGSMGHFQFLHVAILGLPILNMANHNLLQIFTAATPVHHCRPPHNASTGPWVLPMGPNGKPERCLRFVHPPNASLPNDTQRAMEPCLDGWVYNSTKDSIVTEWDLVCNSNKLKEMAQSIFMAGILIGGLVLGDLSDRFGRRPILTCSYLLLAASGSGAAFSPTFPIYMVFRFLCGFGISGITLSTVILNVEWVPTRMRAIMSTALGYCYTFGQFILPGLAYAIPQWRWLQLTVSIPFFVFFLSSWWTPESIRWLVLSGKSSKALKILRRVAVFNGKKEEGERLSLEELKLNLQKEISLAKAKYTASDLFRIPMLRRMTFCLSLAWFATGFAYYSLAMGVEEFGVNLYILQIIFGGVDVPAKFITILSLSYLGRHTTQAAALLLAGGAILALTFVPLDLQTVRTVLAVFGKGCLSSSFSCLFLYTSELYPTVIRQTGMGVSNLWTRVGSMVSPLVKITGEVQPFIPNIIYGITALLGGSAALFLPETLNQPLPETIEDLENWSLRAKKPKQEPEVEKASQRIPLQPHGPGLGSS
[3]
  Km: 57.9 µM

B3: Solute carrier family 22 member 1 (Homo sapiens) (protein)
chain: MPTVDDILEQVGESGWFQKQAFLILCLLSAAFAPICVGIVFLGFTPDHHCQSPGVAELSQRCGWSPAEELNYTVPGLGPAGEAFLGQCRRYEVDWNQSALSCVDPLASLATNRSHLPLGPCQDGWVYDTPGSSIVTEFNLVCADSWKLDLFQSCLNAGFLFGSLGVGYFADRFGRKLCLLGTVLVNAVSGVLMAFSPNYMSMLLFRLLQGLVSKGNWMAGYTLITEFVGSGSRRTVAIMYQMAFTVGLVALTGLAYALPHWRWLQLAVSLPTFLFLLYYWCVPESPRWLLSQKRNTEAIKIMDHIAQKNGKLPPADLKMLSLEEDVTEKLSPSFADLFRTPRLRKRTFILMYLWFTDSVLYQGLILHMGATSGNLYLDFLYSALVEIPGAFIALITIDRVGRIYPMAMSNLLAGAACLVMIFISPDLHWLNIIIMCVGRMGITIAIQMICLVNAELYPTFVRNLGVMVCSSLCDIGGIITPFIVFRLREVWQALPLILFAVLGLLAAGVTLLLPETKGVALPETMKDAENLGRKAKPKENTIYLKVQTSEPSGT
[4]
  Km: 516 µM
[5]
  Km: 151 µM

Reference: ChEMBL document CHEMBL2074052, “Human organic anion transporters and human organic cation transporters mediate renal antiviral transport” (J Pharmacol Exp Ther, 2002)
